Test results from patent US20040043959A1, “Combination therapies for treating methylthioadenosine phosphorylase deficient cells” (priority 2002, published 2004).

What was measured:
Assay in all cases: MTAP substrate assay, coupled spectrophotometric (adenine, xanthine oxidase)
Format in all cases: biochemical, human
Conditions in all cases: other: substrate of MTAP, 37° C.
[1] = substrate: CCN(C)C(=O)[C@H]1O[C@@H](n2cnc3c(N)ncnc32)[C@H](O)[C@@H]1O
Procedure: (§1) An enzymatic assay to determine the activity of MTAP against a given substrate was performed. Human MTAP containing an N-terminal six-histidine tag was expressed in E. coli BL21 DE3 cells. The protein was purified to homogeneity by Ni2+ affinity chromatography. Enzymatic activity was measured using a coupled spectrophotometric assay designed to monitor the reaction product adenine (Savarese, T. M., Crabtree, G. W., and Parks, R. E. Jr., (1980) Biochem. Pharmacol. 30, 189-199). Various concentrations of the indicated 5′-deoxymethylthio adenosine (MTA) or substrate were incubated in assay buffer (40 mM potassium phosphate buffer, 1 mM, and DTT 0.8 units/ml xanthine oxidase coupling enzyme) for 5 minutes at 37° C. The reaction was initiated by the addition of MTAP. The exact concentration of enzyme used varied for each substrate tested and ranged from 2 nM to 500 nM. Activity as a function of enzyme concentration was determined for each substrate tested to ensure that the appropriate enzyme concentration was used. Activity was detected by continuous monitoring of absorbance at 305 nm for 10 minutes (ΔE=15,500 M^−1).
(§2) Library compounds (10 and 50 uM) were tested using the assay described above with 2 nM MTAP enzyme. The resultant initial velocities are reported as a percentage of the initial velocity observed when MTA is the substrate. MTA controls, 10 and 50 uM concentrations, were run on each plate alongside the library compounds.

[2] = substrate: CCOC(=O)CC[C@H]1O[C@@H](n2cnc3c(N)ncnc32)[C@H](O)[C@@H]1O
Procedure: as §1, §2

[3] = substrate: Nc1ncnc2c1ncn2[C@@H]1O[C@H](CSc2ccc(C(F)(F)F)cc2)[C@@H](O)[C@H]1O
Procedure: as §1, §2

[4] = substrate: Cc1cccc(SC[C@H]2O[C@@H](n3cnc4c(N)ncnc43)[C@H](O)[C@@H]2O)c1
Procedure: as §1, §2

[5] = substrate: Nc1ncnc2c1ncn2[C@@H]1O[C@H](CSc2ncc[nH]2)[C@@H](O)[C@H]1O
Procedure: as §1, §2

[6] = substrate: Nc1ncnc2c1ncn2[C@@H]1O[C@H](CSCc2ccc(F)cc2)[C@@H](O)[C@H]1O
Procedure: as §1, §2

[7] = substrate: CSC[C@H]1O[C@@H](n2cnc3c(N)ncnc32)[C@H](N=[N+]=[N-])[C@@H]1O
Procedure: as §1, §2

[8] = substrate: CCCCSC[C@H]1O[C@@H](n2cnc3c(N)ncnc32)[C@H](O)[C@@H]1O
Procedure: as §1, §2

[9] = substrate: C[C@H]1O[C@@H](n2cnc3c(N)ncnc32)[C@H](O)[C@@H]1O
Procedure: as §1, §2

[10] = substrate: Nc1ncnc2c1ncn2[C@@H]1O[C@H](CSC2CCCCC2)[C@@H](O)[C@H]1O
Procedure: as §1, §2

[11] = substrate: CCOC(=O)CCSC[C@H]1O[C@@H](n2cnc3c(N)ncnc32)[C@H](O)[C@@H]1O
Procedure: as §1, §2

[12] = substrate: Nc1ncnc2c1ncn2[C@@H]1O[C@H](C(=O)NCCO)[C@@H](O)[C@H]1O
Procedure: as §1, §2

[13] = substrate: Cc1cccc(CSC[C@H]2O[C@@H](n3cnc4c(N)ncnc43)[C@H](O)[C@@H]2O)c1
Procedure: as §1, §2

[14] = substrate: Nc1ncnc2c1ncn2[C@@H]1O[C@H](CNc2ccccc2)[C@@H](O)[C@H]1O
Procedure: as §1, §2

[15] = substrate: CCSC[C@H]1O[C@@H](n2cnc3c(N)ncnc32)[C@H](O)[C@@H]1O
Procedure: as §1, §2

[16] = substrate: Nc1ncnc2c1ncn2[C@@H]1O[C@H](CSc2nccs2)[C@@H](O)[C@H]1O
Procedure: as §1, §2

[17] = substrate: NCCSC[C@H]1O[C@@H](n2cnc3c(N)ncnc32)[C@H](O)[C@@H]1O
Procedure: as §1, §2

[18] = substrate: Nc1ncnc2c1ncn2[C@@H]1O[C@H](CSc2ccc3ccccc3n2)[C@@H](O)[C@H]1O
Procedure: as §1, §2

[19] = substrate: Nc1ncnc2c1ncn2[C@@H]1O[C@H](CNCCO)[C@@H](O)[C@H]1O
Procedure: as §1, §2

B1: Human MTAP (Homo sapiens) (protein)
chain: MASGTTTTAVKIGIIGGTGLDDPEILEGRTEKYVDTPFGKPSDALILGKIKNVDCVLLARHGRQHTIMPSKVNYQANIWALKEEGCTHVIVTTACGSLREEIQPGDIVIIDQFIDRTTMRPQSFYDGSHSCARGVCHIPMAEPFCPKTREVLIETAKKLGLRCHSKGTMVTIEGPRFSSRAESFMFRTWGADVINMTTVPEVVLAKEAGICYASIAMATDYDCWKEHEEAVSVDRVLKTLKENANKAKSLLLTTIPQIGSTEWSETLHNLKNMAQFSVLLPRH
notes: six-histidine tag (His6) (N); made in house; host or cells: E. coli BL21 DE3
Km [1]: 300 µM | kcat [1]: 0.8 s⁻¹ | Km [2]: 5.95 µM | kcat [2]: 4.12 s⁻¹ | Km [3]: 1.7 µM | kcat [3]: 0.29 s⁻¹ | Km [4]: 2 µM | kcat [4]: 2.4 s⁻¹ | Km [5]: 9 µM | kcat [5]: 3.8 s⁻¹ | Km [6]: 5.4 µM | kcat [6]: 2.24 s⁻¹ | Km [7]: 3600 µM | kcat [7]: 0.04 s⁻¹ | Km [8]: 3.3 µM | kcat [8]: 5.4 s⁻¹ | Km [9]: 6 µM | kcat [9]: 4.8 s⁻¹ | Km [10]: 3.5 µM | kcat [10]: 1.57 s⁻¹ | Km [11]: 4.3 µM | kcat [11]: 1.54 s⁻¹ | Km [12]: 1000 µM | kcat [12]: 3 s⁻¹ | Km [13]: 4 µM | kcat [13]: 1.82 s⁻¹ | Km [14]: 8.5 µM | kcat [14]: 2.02 s⁻¹ | Km [15]: 1.8 µM | kcat [15]: 2.9 s⁻¹ | Km [16]: 3.4 µM | kcat [16]: 2.49 s⁻¹ | Km [17]: 390 µM | kcat [17]: 0.141 s⁻¹ | Km [18]: 6.9 µM | kcat [18]: 3.16 s⁻¹ | Km [19]: 758 µM | kcat [19]: 0.029 s⁻¹
